Data published in publication PMC5922973, “Topoisomerase VI senses and exploits both DNA crossings and bends to facilitate strand passage” (eLife, 2018).

Key:
topo VI KGRR-EEE [1] = biological target: T1, topo VI KGRR-EEE (Methanosarcina mazei, UniProt Q8PUB7;Q8PUB8 1-369;1-621, K186E;R188E;R189E); test: fluorescence anisotropy; FA: 20 nM probe, 50 mM K-glutamate, 20 mM HEPES-KOH pH 7.5, 10 mM MgCl2, 5% glycerol, 1 mM TCEP, 0.1 mg/mL BSA; incubated on ice, read at ambient temperature; competition with 100 nM enzyme; conditions: protein: recombinant; tags: N-terminal His6-TEV on Top6B, removed; chain copies: 2;2; label: 5'-FAM strand 1; blunt
T1 sequence 1: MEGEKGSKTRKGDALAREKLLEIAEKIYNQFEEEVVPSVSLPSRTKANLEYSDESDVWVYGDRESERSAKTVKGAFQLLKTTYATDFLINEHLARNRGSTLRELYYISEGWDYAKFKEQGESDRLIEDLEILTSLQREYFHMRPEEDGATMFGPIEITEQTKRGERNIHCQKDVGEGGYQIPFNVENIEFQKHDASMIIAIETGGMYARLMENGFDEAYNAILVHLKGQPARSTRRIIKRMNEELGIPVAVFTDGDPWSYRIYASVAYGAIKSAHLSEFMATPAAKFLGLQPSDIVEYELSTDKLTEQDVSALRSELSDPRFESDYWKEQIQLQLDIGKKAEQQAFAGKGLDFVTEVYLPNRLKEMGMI
T1 sequence 2: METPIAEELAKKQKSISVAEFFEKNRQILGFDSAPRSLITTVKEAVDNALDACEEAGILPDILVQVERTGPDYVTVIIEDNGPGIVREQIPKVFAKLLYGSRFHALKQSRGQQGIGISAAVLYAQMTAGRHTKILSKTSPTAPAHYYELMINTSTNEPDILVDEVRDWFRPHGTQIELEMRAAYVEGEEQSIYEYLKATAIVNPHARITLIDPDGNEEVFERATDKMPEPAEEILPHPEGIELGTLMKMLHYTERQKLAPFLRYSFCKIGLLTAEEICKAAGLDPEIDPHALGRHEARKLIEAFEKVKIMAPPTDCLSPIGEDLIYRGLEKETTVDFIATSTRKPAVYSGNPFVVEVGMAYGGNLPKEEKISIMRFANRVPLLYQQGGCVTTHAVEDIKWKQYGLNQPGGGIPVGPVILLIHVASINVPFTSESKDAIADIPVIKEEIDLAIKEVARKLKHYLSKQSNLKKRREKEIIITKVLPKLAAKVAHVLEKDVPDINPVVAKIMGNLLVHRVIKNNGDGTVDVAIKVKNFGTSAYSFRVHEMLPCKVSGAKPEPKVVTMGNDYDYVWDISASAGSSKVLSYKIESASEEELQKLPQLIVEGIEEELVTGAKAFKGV

topo VI KGRR-AAA = biological target: T2, topo VI KGRR-AAA (Methanosarcina mazei, UniProt Q8PUB7;Q8PUB8 1-369;1-621, K186A;R188A;R189A); test: fluorescence anisotropy; 10 mM Mg2+; ambiguous, poorly defined dFAmax; FA: 20 nM probe, 50 mM K-glutamate, 20 mM HEPES-KOH pH 7.5, 10 mM MgCl2, 5% glycerol, 1 mM TCEP, 0.1 mg/mL BSA; incubated on ice, read at ambient temperature; competition with 100 nM enzyme; conditions: protein: recombinant; tags: N-terminal His6-TEV on Top6B, removed; chain copies: 2;2; label: 5'-FAM on S1; four-way Holliday junction, stacked-X, two GAAA-capped arms
T2 sequence 1: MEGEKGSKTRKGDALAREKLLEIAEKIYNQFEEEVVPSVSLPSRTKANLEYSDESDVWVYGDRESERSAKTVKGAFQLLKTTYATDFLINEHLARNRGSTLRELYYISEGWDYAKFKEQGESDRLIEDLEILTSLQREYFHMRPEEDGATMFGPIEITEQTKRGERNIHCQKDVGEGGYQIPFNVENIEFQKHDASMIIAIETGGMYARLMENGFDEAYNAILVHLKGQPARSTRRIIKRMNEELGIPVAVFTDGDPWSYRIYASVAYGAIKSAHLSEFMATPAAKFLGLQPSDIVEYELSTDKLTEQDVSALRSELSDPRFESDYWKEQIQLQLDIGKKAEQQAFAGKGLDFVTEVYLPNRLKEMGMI
T2 sequence 2: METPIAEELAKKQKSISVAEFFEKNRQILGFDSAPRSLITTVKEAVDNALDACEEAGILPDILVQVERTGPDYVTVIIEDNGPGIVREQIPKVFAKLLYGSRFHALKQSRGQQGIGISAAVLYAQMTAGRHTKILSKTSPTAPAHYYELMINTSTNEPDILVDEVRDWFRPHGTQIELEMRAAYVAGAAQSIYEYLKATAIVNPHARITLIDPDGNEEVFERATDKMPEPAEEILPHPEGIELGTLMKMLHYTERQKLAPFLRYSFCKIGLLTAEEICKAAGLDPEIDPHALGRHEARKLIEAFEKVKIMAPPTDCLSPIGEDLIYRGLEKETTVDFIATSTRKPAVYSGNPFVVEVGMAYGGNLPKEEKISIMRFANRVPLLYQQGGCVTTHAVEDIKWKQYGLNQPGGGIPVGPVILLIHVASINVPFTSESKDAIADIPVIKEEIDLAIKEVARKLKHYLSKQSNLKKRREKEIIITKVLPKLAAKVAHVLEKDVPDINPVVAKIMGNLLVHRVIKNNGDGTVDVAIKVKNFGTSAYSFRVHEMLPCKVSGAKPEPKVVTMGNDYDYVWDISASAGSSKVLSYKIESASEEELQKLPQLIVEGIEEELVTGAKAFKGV

topo VI KGRR-EEE [2] = biological target: T1, topo VI KGRR-EEE; test: as above; conditions: protein: recombinant; tags: N-terminal His6-TEV on Top6B, removed; chain copies: 2;2; label: 5'-FAM on S1; four-way Holliday junction, stacked-X, two GAAA-capped arms

B1: 60 bp duplex (dsDNA)
DNA 1: CGCTTCAATAATATTGAAAAAGGAAGAGTATGAGTATTCAACATTTCCGTGTCGCCCTTC
DNA 2: GAAGGGCGACACGGAAATGTTGAATACTCATACTCTTCCTTTTTCAATATTATTGAAGCG
Kd (topo VI KGRR-EEE [1]): 119 ± 3 nM

B2: 16 x 20 bp stacked junction (structured_DNA)
DNA 1: CGAATACTCAGCTCAACCGAAAGGTTGAGCCTTCGCTCGAAAGAGCGAAGTACTCTTCCG
DNA 2: CGGAAGAGTATGAGTATTCG
Kd (topo VI KGRR-AAA): ~758 nM
Kd (topo VI KGRR-EEE [2]): ~1460 nM
